Test results published in paper PMC8349896 (Molecular cell, 2021).

Columns and labels:
SEC = target: the molecule itself; assay: SEC
gp16-N = target: T1, gp16-N (bacteriophage T7, UniProt P03726 1-228); assay: EMSA
T1 sequence: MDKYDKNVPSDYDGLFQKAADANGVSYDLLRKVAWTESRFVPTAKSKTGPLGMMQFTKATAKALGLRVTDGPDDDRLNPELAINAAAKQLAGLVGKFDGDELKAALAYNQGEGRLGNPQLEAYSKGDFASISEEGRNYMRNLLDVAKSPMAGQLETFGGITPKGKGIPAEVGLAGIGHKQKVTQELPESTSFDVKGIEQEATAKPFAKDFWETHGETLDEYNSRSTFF

gp16-C = target: T2, gp16-C (bacteriophage T7, UniProt P03726 275-1318); assay: EMSA
T2 sequence: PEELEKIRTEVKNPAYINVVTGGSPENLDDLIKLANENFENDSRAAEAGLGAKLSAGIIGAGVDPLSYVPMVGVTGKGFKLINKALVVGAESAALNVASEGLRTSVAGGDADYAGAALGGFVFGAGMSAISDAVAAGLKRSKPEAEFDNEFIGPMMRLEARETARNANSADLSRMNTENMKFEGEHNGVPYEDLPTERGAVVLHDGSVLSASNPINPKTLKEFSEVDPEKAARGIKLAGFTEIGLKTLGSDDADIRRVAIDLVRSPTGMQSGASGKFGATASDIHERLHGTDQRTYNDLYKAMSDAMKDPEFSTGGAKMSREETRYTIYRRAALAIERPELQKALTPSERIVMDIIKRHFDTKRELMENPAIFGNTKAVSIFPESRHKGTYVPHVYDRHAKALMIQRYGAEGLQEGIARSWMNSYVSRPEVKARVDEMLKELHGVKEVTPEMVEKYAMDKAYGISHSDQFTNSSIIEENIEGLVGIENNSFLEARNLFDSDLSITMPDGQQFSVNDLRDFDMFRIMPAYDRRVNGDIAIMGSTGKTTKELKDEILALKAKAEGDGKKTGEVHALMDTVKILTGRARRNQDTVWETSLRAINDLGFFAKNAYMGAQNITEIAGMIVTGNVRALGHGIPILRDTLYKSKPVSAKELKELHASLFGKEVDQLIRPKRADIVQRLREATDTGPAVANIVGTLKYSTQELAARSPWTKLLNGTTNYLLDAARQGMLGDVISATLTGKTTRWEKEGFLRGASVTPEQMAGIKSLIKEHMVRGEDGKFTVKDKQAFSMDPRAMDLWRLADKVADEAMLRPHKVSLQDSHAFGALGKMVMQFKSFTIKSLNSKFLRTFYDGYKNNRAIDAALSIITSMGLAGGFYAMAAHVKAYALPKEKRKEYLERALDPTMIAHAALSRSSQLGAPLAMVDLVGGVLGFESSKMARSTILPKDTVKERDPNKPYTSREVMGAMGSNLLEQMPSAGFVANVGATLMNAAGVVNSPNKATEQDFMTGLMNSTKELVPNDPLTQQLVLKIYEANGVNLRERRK

[1] = target: T3, bacteriophage T7 ejection protein gp15, full length (bacteriophage T7, UniProt P03725 1-747); assay: native gel or EMSA
T3 sequence (looked up): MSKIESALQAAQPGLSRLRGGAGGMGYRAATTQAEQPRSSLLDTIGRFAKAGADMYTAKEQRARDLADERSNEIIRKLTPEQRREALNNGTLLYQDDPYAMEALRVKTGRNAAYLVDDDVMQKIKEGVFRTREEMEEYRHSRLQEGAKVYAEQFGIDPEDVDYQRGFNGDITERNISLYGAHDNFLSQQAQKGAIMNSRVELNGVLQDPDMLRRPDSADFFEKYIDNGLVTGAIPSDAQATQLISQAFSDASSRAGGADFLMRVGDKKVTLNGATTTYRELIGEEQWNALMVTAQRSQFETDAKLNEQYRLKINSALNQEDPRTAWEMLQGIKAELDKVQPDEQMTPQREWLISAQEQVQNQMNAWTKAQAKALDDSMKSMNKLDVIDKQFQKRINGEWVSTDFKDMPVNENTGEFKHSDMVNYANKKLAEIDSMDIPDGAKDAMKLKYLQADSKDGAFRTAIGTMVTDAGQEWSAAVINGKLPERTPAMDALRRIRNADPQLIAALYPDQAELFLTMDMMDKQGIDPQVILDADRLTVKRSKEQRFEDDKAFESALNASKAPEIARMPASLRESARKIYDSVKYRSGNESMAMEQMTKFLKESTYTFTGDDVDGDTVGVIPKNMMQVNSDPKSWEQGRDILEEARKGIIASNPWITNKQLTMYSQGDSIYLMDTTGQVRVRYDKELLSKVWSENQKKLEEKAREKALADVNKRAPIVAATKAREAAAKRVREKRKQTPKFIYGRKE

B1: bacteriophage T7 ejection protein gp14 (natural protein, UniProt P03724 1-196, looked up)
chain: MCWAAAIPIAISGAQAISGQNAQAKMIAAQTAAGRRQAMEIMRQTNIQNADLSLQARSKLEEASAELTSQNMQKVQAIGSIRAAIGESMLEGSSMDRIKRVTEGQFIREANMVTENYRRDYQAIFAQQLGGTQSAASQIDEIYKSEQKQKSKLQMVLDPLAIMGSSAASAYASGAFDSKSTTKAPIVAAKGTKTGR
- binding result (SEC): binds

B2: Cy3-dsDNA 24-mer (dsDNA)
DNA 1: GCACTGCAGTAACTTGTCAGTCAT
DNA 2: ATGACTGACAAGTTACTGCAGTGC
- binding result (gp16-N): no binding
- binding result (gp16-C): binds

B3: gp16-N (bacteriophage T7 gp16 residues 1-228) (domain or fragment, UniProt P03726 1-228, looked up)
chain: MDKYDKNVPSDYDGLFQKAADANGVSYDLLRKVAWTESRFVPTAKSKTGPLGMMQFTKATAKALGLRVTDGPDDDRLNPELAINAAAKQLAGLVGKFDGDELKAALAYNQGEGRLGNPQLEAYSKGDFASISEEGRNYMRNLLDVAKSPMAGQLETFGGITPKGKGIPAEVGLAGIGHKQKVTQELPESTSFDVKGIEQEATAKPFAKDFWETHGETLDEYNSRSTFF
- binding result [1]: binds
